Results reported in the Human Domainome abundance scans (Beltran et al. 2025).

B1: Ankyrin-2, residues 3571 to 3650; numbered along this chain, Q01484 (parent)
chain: ERLAYIADHLGFSWTELARELDFTEEQIHQIRIENPNSLQDQSHALLKYWLERDGKHATDTNLVECLTKINRMDIVHLME

Variants of: B1
Test: abundance fitness (aPCA) (normalised: wild type 0, dead -1); higher = more abundant; growth selection in yeast, the domain comes from the species named
Conditions: Homo sapiens

Abundance fitness, by site and new letter:
T24: Y 0.053 | I -0.154 | V -0.248 | R -0.027 | L -0.144 | D 0.064 | S -0.025
E26: N -0.033 | M -0.041 | T -0.027 | I -0.045 | L -0.057 | W -0.105 | H 0.039 | S -0.091 | F -0.282 | R -0.068 | D -0.053 | K 0.035 | Q -0.129 | G -0.059 | C -0.209 | Y -0.118 | P -0.086 | A -0.087
E20: V -0.003 | F -0.098 | C -0.156 | D 0.018 | R -0.057 | L -0.083 | A -0.118 | P -0.814 | G -0.095 | W -0.156 | Y -0.1 | S -0.076 | M 0.089 | Q -0.169 | T -0.025
I28: M -0.064 | K -0.633 | R -0.22 | D -0.895 | Y -0.225 | Q -0.179 | A -0.215 | H -0.668 | E -0.171 | L -0.05 | G -0.634 | T -0.1 | V -0.056 | F -0.792 | S -0.203 | N -0.301 | P -0.833
S13: G -0.035 | Q 0.059 | M -0.129 | A -0.097 | R -0.077 | W -0.17 | K -0.224 | V -0.214 | L -0.306 | P -0.291 | F -0.036 | Y -0.228 | C -0.25
D22: F -0.039 | S 0.012 | N -0.111 | E -0.217 | K -0.051 | H -0.017 | C -0.167 | A -0.05 | V -0.206 | W -0.223 | T -0.048 | Q 0.017 | I -0.14 | G -0.075 | M -0.075 | Y -0.158
L21: Q -0.24 | M -0.107 | I -0.268 | G -0.072 | T -0.412 | E -0.849 | A -0.086 | V -0.225 | F 0.069 | W -0.093 | N -0.149 | C -0.488 | K -0.32 | S -0.33
L17: Y -0.478 | T -0.235 | R -1.23 | I -0.024 | P -1.17 | F 0.08 | C -0.035 | S -1.03 | V -0.096 | H -0.91 | G -1.04 | A -0.134 | W -0.692 | N -1.15 | M -0.119 | E -1.05
Q30: F -0.023 | D -0.183 | C -0.044 | H -0.045 | L -0.052 | S -0.081 | I -0.076 | P -0.825 | W -0.209 | R 0 | M 0.008 | E 0.005 | V -0.073 | A -0.082 | G -0.079 | K -0.112 | N -0.128 | T -0.023
R19: G -0.004 | D -0.006 | C -0.089 | H 0.028 | N 0.015 | W 0.001 | I 0.049 | Q 0.046 | F -0.195 | K 0.077 | A -0.076 | E 0.101 | L -0.025 | P -0.208 | Y -0.396 | S -0.101 | M 0.083
W14: Y -0.31 | F -0.199 | P -0.958 | R -0.994 | G -0.978 | Q -0.999 | K -1 | L -0.268 | A -0.572 | S -0.812 | N -0.348 | E -1.13 | H -0.842 | C -0.63 | M -0.394 | V -0.283
